From the DeepSol protein solubility set

Experiment: soluble on expression in E. coli; label from the status in PepcDB or PDB records

Row | Sequence | soluble on expression in E. coli
1 | MILLIDNYDSFVFNVKSMLEQLSNDEILVRRNDAISLSEIKNLNPTHIILSPGPKHPSQSGICLEIFKARLNIPVLGICLGHQALALAFDSLVVKMQEPMHAKNSLIKQCRENELFSNLPSNFSVMRYHSLEVKQLSDELEILALDEKGVIMALGHKNLPYYGVQFHPESYFSEYGLQLFSNFLKQDIKKPQKQENPLSFYLQKMSENHFLQSDDFEQICKIIMSKDYEILQVVALLILITEKSLNEKSLSAFVRQILRYSQTFSDESEMIDICGTGGDGFKSINVSTTSAFILAALGVKVAKHGNRAISSSSGSTDVLEALNITTPNTLESVLKQLNNQGLSFLHAPFFHPLVGELKEIRSRLGVRTVFNVLGPLLHPNLKLKYQLMGNYHAPVHRLLIEVLKNLGRKKALVVRGNDGMDELSICDESKIYELCEGEILEYSICPEQFGFKRAFHSEIIGSSAYDNAKDLKDILSGRMQGAKFDLVVLNAMFALYTANKASSPLVAKDMILEAIYSGKVIEYFKEYQAYAKA | not soluble
2 | MKKWLLAAGLGLAMVTSAQAADKIAIVNMGNLFQQVAQKTGVSNTLENEFKGRAAELQKMETDLQSKMQRLQSMKAGSDRTKLEKDVMSQRQTFAQKAQAFEKDRARRSNEERNKLVTRIQTAVKKVANDQSIDLVVDANTVAYNSSDVKDITADVLKQVK | not soluble
3 | SSRVTYPLRKMREGAQDLAKGKFDTKIPILTQDEIGELATAFNQMGRQLNFHINALNQEKEQLSNILSSMADGVITINIDGTILVTNPPAERFLQAWYYEQNMNIKEGDNLPPEAKELFQNAVSTEKEQMIEMTLQGRSWVLLMSPLYAESHVRGAVAVLRDMTEERRLDKLREDFIANVSHELRTPISMLQGYSEAIVDDIASSEEDRKEIAQIIYDESLRMGRLVNDLLDLARMESGHTGLHYEKINVNEFLEKIIRKFSGVAKEKNIALDHDISLTEEEFMFDEDKMEQVFTNLIDNALRHTSAGGSVSISVHSVKDGLKIDIKDSGSGIPEEDLPFIFERFYKADKARTRGRAGTGLGLAIVKNIVEAHNGSITVHSRIDKGTTFSFYIPTKR | not soluble
4 | AHHHHHHGSKVVALLSSGIDSPVAIHLMASRGVEVYPLHFRQDEVKERKVRKVVKKLQEIHGEKVKDPHTVNAYEVQAPVFEKLKEIKKGKWTCVFCKYTMYIVAESYAKKVGASAIITGDSLGQVASQTLDNLLVISTATKLPVIRPLIGLDKEEIVKIAKEIGTFEISIEEEPPCPFVPKFPVVRAGLGEFQKILSQVKDKLPRGDL | soluble
5 | MKRLADVKISTLDLVPVRHDKGPADSLRNSLNLAQHVEKLGYNRFWVAEHHNMDGIASSATSVLLAYLAGGTSTIRVGAGGIMLPNHAPLVVAEQFGTLASLYPGRIDLGLGRAPGSDQMTARALRRERSGSAEDFPDDVTELMEYLGPRTPDQKVIAVPGSDTNVPIWLLGSSLFSAQLAGMRGLPYAFASHFAPRYMHEAIRVYRNHFQPSAVLDKPYVMLGVPLSAADTDEHAEYLATSVYQRILALMRGHSLMQRPPVESMDGLWLPHEREAVASFLGLAMVGGPDKIRAKLDVLLEQTDADELIFTCDMYEHEDRLRSYEILAQVAQG | not soluble
6 | MRVAVTGTPGTGKTTATGRLDTALDVAHLNDLVGTEGLYDGVDADRGSKIVDVDAVRDHFAGREDVLVESHLAHRLDDLDAVVVLRCAPETLATRLQDRGDSPEKAAENADSEALAIILSEAVRGHGADAVYEIDTTDRSPDAVAAAIQAVLDGDREPSAGTVDYTDYV | not soluble
7 | MSEAWITLATNDNYAQGALVLVHSLRTAGTTRKIHCLISNEVSAPVRKQLEEHFDDVSIVDVFNSNDSDNLRLIERPDLGVTFTKLHCWRLTQYTKCVFLDADTLVLRNADELFTRPDFSAASDIGWPDSFNSGVFVYVPNNETYRQLVDFAVTHGSYDGGDQGLLNDFFSNWRDLPSEHRLPFIYNMTAGAFYTYAAAYKRYGANTKIVHFIGSVKPWHGSAAVHTGEHFQQWQKIYHAHVNHTSRTNEHAAVFPSHHHTPEHRSHSADHPKIERKDSIVREIGNFVMHVVQSVNILPSYDTDANTSDSHRNNEPHKHDQQREEHHELPHNKFQTPHEESQDIVGSTDCFGSQMPKYNADSETDREVEQITNNTPCPAFVPFERREEYQAASPSTEERRAAWEAGQPDYLGRDAFVHIQEALNRALNE | not soluble
8 | MRNNQPVTQKEVTYPPHFNLLSTTTLSSHIKYASKEFCDVAGYTLDELVNQPHNMVRHPDMPPEAFKDMWEHLKAGKSWMGMVKNRCKNGDHYWVDAFASPIKENGK | not soluble
9 | MSRLATLTWTSYRRGYTEIVTSAGLEVVFEPGDEWNSHDREYQQARLEVEGRGESGDGTVRTRTQALLRWQFKIKDGTVKRLPEADFTREVLVAVRLAIKDYRSQSSELRQKYFGPGFAMGG | not soluble
10 | MGSDKIHHHHHHMKRLSPEVFKVPIDRIRNGYYSDIYFINYVKVLKRDSRHPRVYYQFFPRKDAVICGIDEALAILKFCTGYYKDEEKARELFEEILKLDKEMQAASVEMDVQKILELTQKKWDLRLKLNDLWVDKWDEIEVHALYDGEEAKEGEPIMTIEGDPTYFGYLETVLLGVIARATSTATAVKKVVKAARGKPVLFFSARFDHYWVQATDGYAALKAGAFGVSTDANADYWGVKSMGTMPHALIACYDGKTEDAAIAFDRHMEEDVNRIVLVDWDNDVIGTTFRVIEKFYEYVMKKPFKLGVTDPSPIIGPGKNKIWGVRFDTSGNLRDKSVVPKDESSFGVCPELVWRARQEFDKVGLRDLKIVVSGGFDEKKIDLFERLGVPADAYGVGSRLLREKVDITADIVEVNGRHCAKVGRYKIENPRLKKVGKRYWEEE | not soluble
11 | MRIGIISVGPGNIMNLYRGVKRASENFEDVSIELVESPRNDLYDLLFIPGVGHFGEGMRRLRENDLIDFVRKHVEDERYVVGVCLGMQLLFEESEEAPGVKGLSLIEGNVVKLRSRRLPHMGWNEVIFKDTFPNGYYYFVHTYRAVCEEEHVLGTTEYDGEIFPSAVRKGRILGFQFHPEKSSKIGRKLLEKVIECSLSRR | soluble
12 | MGHHHHHHSHIAFLGPKGSYSHLAARQYAARHFEQFIESGCAKFADIFNQVETGQADYAVVPIENTSSGAINDVYDLLQHTSLSIVGEMTLTIDHCLLVSGTTDLSTINTVYSHPQPFQQCSKFLNRYPHWKIEYTESTSAAMEKVAQAKSPHVAALGSEAGGTLYGLQVLERIEANQRQNFTRFVVLARKAI | soluble
13 | MGSDKIHHHHHHMRRLPHVTWLRSFEAAARHSSFSAAAEELHLTPAAVSQQIRQLEHHLGFQLFKRLPKGVELTDIGQAYAIPVRKSFVQMQEATDGLFRVQSKSVLRVRCSISFAALILAPLLRDFAEIHPDIDVELSTAVWSDRMEGAGVDLDIRYGAACWPEQNVHPLPVEEATLVCHPDYAAQLGSALDPAWLGAADIVQIVGSETDWDRYLRLCGIDTPRPRHWMKADSSLIALQILSAGRGCALISRSFARQALSEGRLVAPFDLSLPMQESFVLVERDDLRENPGLRKLVDWLLTQRL | not soluble
14 | MNVGDVVKGEVLAIDDDKQVIVGIQGTGVEGVVPLKELSTQRVDDVNEAAKVGDVLDLVVISRIGSDKENGSYLLSHRRLEARKVWDDVEKEYEAGHTIKAPVTQVVKGGLVVDAGVRGFIPASMIDDHYVEDLNAYKGQELELKIIEIEPSENRLILSHRAVVEKQREALEHHHHHH | soluble
15 | MEVKIEETDWDEGVPGISFLKDAFSREEISPPKDDKNRKKEEVRMKLESGEYSVVYRCPTFDEILNENGQKIDLVQCKNCFGFLSARTGGHMKNHKNQRCKPLNGPPEKKPKLDPQVVGNLQNHILDFVTESGVSLNIAESEKFRIFIISMIITGNPNVNVDEHQFLSGEWIRKTMKEKSCQYLDNIGAELKDPVSKGDACLILDYGRQLDDTFSIFVSYTNRSSGYFSLRVIPLAFTPLFEKKITEKTLDYILHATDRVGLPKEHVLKLKVVAEGATNMLKLGEYFDNCNLFTVCLSFSSKMCRKSFRSTETVEKFDNFIRKITCESDRKRNRNLWNDFLQTPALQSLINIYVLSLILLCFQLTEQLSRTPAQSRANEWLASYHCARDILHVFPQIADLKDDRIEPLVDELRQCKGVLEDCFEIFSLFENPLKLLEQPEQQIQNVAGCLAAVAKMAKLSIAHYTKITVTDVHLICAFLSPDSKNLKNFPAPKKNKAYRIVNTLMKDVVVPPPSLSQPILSPLLMAIKNDPSPIPTVSQEFNDYVQLVVSSKDATLAPLEFWAKYQERFPRMSEIAAKNFCVMSSPGVCGPSFIVLRSLFRVDRHSKFPDTTELMMISYLMANELK | not soluble
16 | MGRKKKKVDKPWCWYCNREFDDEKILIQHQKAKHFKCHICHKKLFSGPGLSIHCMQVHKETIDKIPAAVHGRDNIHVEIYGMQGIPSGAYRGAADEEPDEKRSRMDNGPPMPTPMPFPQHFPFPGMPPMPSGPPPPSMAYGMPPMPSGMMPPRGMPGAYPPPRGYPPAPAPGVYMPPPGMPGAYPPPRMPIGHGPPGGPPMPGPPQRSRFDQPDGGDRWGPPMRGVPRTPPYENEHEHQDYQAPDDYNQGGYDDRFREGDRGGPPGGSRFDQVKAELKEEIVEPNNGPPTTSSGAAAASAAAVVASKLGSRTRIVYPDDHSLSLEERRVKMLFEKRSNPYH | soluble
17 | MSTPDGDEKEQCFHRAIAKTSIYLDREPGNPELTVWLAINKASLAGAQGGFGALSLAKEAKSLLEGVIATSPQTLDGSAYTSLGSLYYKVPGWPIGFGDDDKAEEMLKKALEINPKGIDPNYFYGDFLAEEGRDKEAKVYLTRAMQASPRPLEHHHHHH | not soluble
18 | MGSDKIHHHHHHMLTVLLLAGAEKLINMAIASDEITKAGLVPLAGKVLRLNMGTPDVNLDVLFTQERLRFEPVTTESVFEQSGTMNERQKASLERGRLGHSRPDCIITVANPAQLLNLMRGTEGNLPIEGDYKVLMQLNQLVAGFDPDVAGQLEPFIGKPMASQLHLLISQLKGSWRHSAKRAFNDVSDWANDVAGNVTPDTSEAAEVNVLKQQLLKLRADVEREEARLAAIKDEQARLTNSR | not soluble
19 | MNFQKVCSLDELWEGDMTEVEVAGHVIVLVRPEGGEPRAFQGICPHQDIPLAEGKFDGRVLMCRAHQWTFDANTGKGINPGGARLAEYALKVEGDDILVAVEGVEPLFANC | soluble
20 | MSAEFERLLAQFERFQSKIKKVDDQLANVERMQSEIAELEATASNADRSITIVAGPGGAIKDIQLTDKALSQQPQALSAALMSTIQEAVAEAARKQAAIVDDHMGGQLNVTDQVLETQAQLFGTSPQELRERMEQERPIRQTPLRPEEEYHEDYSHQDFLGSDQEQQSPPPPPAPSGGSAGDEFLQNLFNNDDHR | not soluble
21 | MNVGYLCTYTPKELIDAAGFTPIRIFAGDMQISLATAHIQSYACSQARGSLERALRGELDVQAVVFTRCCDTLMRLADIWERNTDMRVYNIEFPTRVEERSKDYYFNELKDFVKVLEEWGGGVTLESLRESLKLYHELEEKLKRLFSLKPDYEAAKRVQEMNVREAIKFVDERLRKAESEGGKPRVLITGSVCPFVEVYTLFEEAGFALKDDICTGTRFFTFNTPPREIGSVDEGLRFLVDKYFEKAPCPTKHFPNDDRFKYILEMAKDCDGVVFLLLKFCEPHFYDYPQLKERLEEMGKKVLLLELEFPIASIEQLRTRIEAFYEVIA | not soluble
22 | MNFDWQMPRDPFADDPNDPASFIEDDEQAPPLTEAERQHIREDLALVKRFKEALEPRGINGIFFLCEDCDEDHYYDWDIMAANMRATLAGELAPVHEPSVNPNPHAYVPWDYCLGYLDGLEAPRMRFF | not soluble
